Assays:
[1] = target: Orf13-V164C-Q280C (not stated (Tn916, an ICE widespread in Enterococcus faecalis and other firmicutes)); assay: SEC-MALS; soluble proteins, Superdex 200 Increase, 50 mM tris-HCl, 100 mM NaCl, pH 8
[2] = target: OrfGExt (purified, WT) (Streptococcus thermophilus); assay: crystal structure; sitting drop, 20°C; WT in 1.26 M ammonium sulfate, 100 mM sodium cacodylate pH 6.5; A204C-A264C in 40% PEG 300, 100 mM potassium phosphate citrate pH 4.2
[3] = target: OrfGExt-A204C-A264C (Streptococcus thermophilus); assay: as above
[4] = target: OrfGExt-A204C-A264C (Streptococcus thermophilus); assay: SEC-MALS; soluble proteins, Superdex 200 Increase, 50 mM tris-HCl, 100 mM NaCl, pH 8
[5] = target: full-length OrfG-A204C-A264C (purified) (Streptococcus thermophilus); assay: SEC-MALS; membrane proteins, Superose 6 10/300 Increase, 50 mM tris-HCl pH 8, 300 mM NaCl, 0.1% OGNG
[6] = target: full-length OrfG-A204C-A264C produced in S. thermophilus (Streptococcus thermophilus); assay: cross-linking; disulfide cross-linking of engineered cysteines in S. thermophilus; membrane fractions with or without DTT, SDS-PAGE, Western blot with Ab-G

**Q.** With Orf13-V164C-Q280C (domain or fragment) as the substance, how does the stoichiometry N [1] read?
**A.** 3

**Q.** How did the stoichiometry N [2] turn out when “OrfGExt (purified, WT) (domain or fragment)” was run?
**A.** 3

**Q.** Which results are given for “OrfGExt-A204C-A264C (domain or fragment)”?
**A.** stoichiometry N [3]: 3; stoichiometry N [4]: 3

**Q.** “full-length OrfG-A204C-A264C (purified) (natural protein)” was tested. Which stoichiometry N [5] did it give?
**A.** 3

**Q.** For “full-length OrfG-A204C-A264C produced in S. thermophilus (natural protein)”, which stoichiometry N [6] is on record?
**A.** 3
